Results on four substances are retold here after US6723697B2, “IL-16 antagonists” (Research Corporation Technologies, Inc., priority 1999, dated 2004).

One assay concerns the target T1, IL-16 (Mus musculus, UniProt O54824).
T1 construct: polyhistidine fusion protein containing the 119 C-terminal residues encoded by the previously reported murine cDNA; polyhistidine (cleaved yes); made in house
T1 sequence (O54824 1204-1322): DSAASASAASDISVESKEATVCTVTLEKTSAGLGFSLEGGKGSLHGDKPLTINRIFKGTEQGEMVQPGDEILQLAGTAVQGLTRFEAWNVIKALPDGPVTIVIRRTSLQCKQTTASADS
The assay is described as follows: IL-16-induced migration of human T-cells. Format: cell-based. The note with it: co-incubation of IL-16 and peptide.

Another assay deals with anti-CD4 antibody (OKT4). The assay is described as follows: OKT4-induced migration of T-cells. The format is cell-based. Conditions: OKT4 1 μg/ml, co-incubation.
The next assay deals with HIV-1 gp120 (Human immunodeficiency virus type 1 group M subtype B, UniProt P04578). Conditions: gp120 5 μg/ml, co-incubation.
For another assay, the target named is T2, rIL-16 (Mus musculus, UniProt O54824).
T2 construct: polyhistidine fusion protein containing the 119 C-terminal residues encoded by the previously reported murine cDNA; polyhistidine (cleaved yes); made in house; host or cells: Escherichia coli strain HMS 174, vector pET16b
T2 sequence (O54824 1204-1322): T1 sequence (O54824 1204-1322)
The assay is described as follows: IL-2R (CD25) induction on rIL-16-stimulated murine splenocytes, flow cytometry. The format is cell-based. Conditions: for % IL-2R+ CELLS: IL-16 + peptide, concentration not given (10^-6 M or 10^-7 M). As for the experimental part: Induction of IL-2R (CD25) on rIL-16-stimulated murine splenocytes was detected by staining with FITC-conjugated anti-mouse IL-2R Ab (PharMingen). Cells were fixed with 10% formalin and stored at 4° C. in the dark before analysis with a Becton Dickinson FACScan 440 flow cytometer. The % IL-2R^+ cells was determined by subtracting the % isotype control positive from the total % positive events.
Peptides A (SEQ ID NO:15) and C (SEQ ID NO:19) were inhibitory at 10^−7 M, but not 10^−6 M. The negative control peptide D (SEQ ID NO:20) (10^−6 M) had no effect on rIL-16-stimulated IL-2R expression.
Murine splenocytes were incubated in control buffer, rIL-16 alone, or rIL-16 plus the indicated peptide. IL-2R expression was determined by flow cytometry using FITC-conjugated anti-IL-2R antibody. The % IL-2R^+ was determined by subtracting the FITC-conjugated isotype control antibody binding from the FITC-conjugated anti-IL-2R antibody binding. Isotype control antibody binding ranged from 1% to 4%.

The target in assay [1] is T3, rIL-16 / GST-murine D3D4 fusion protein (Mus musculus, UniProt O54824).
T3 construct: murine IL-16 cDNA construct in pET-16b expressing the C-terminal 119 amino acids of IL-16; polyhistidine (pET-16b vector); made in house; host or cells: IL-16: coupled in vitro transcription-translation (TNT T7, Promega); GST-D3D4: E. coli, vector pGEX-5X.1
T3 sequence (O54824 1205-1322 limits assumed): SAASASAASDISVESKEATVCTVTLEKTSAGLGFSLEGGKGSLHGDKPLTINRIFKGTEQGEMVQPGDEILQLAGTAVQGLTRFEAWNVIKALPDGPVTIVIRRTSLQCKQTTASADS
As to the kind of experiment: in vitro binding of 35S-labeled murine rIL-16 to GST-murine D3D4 fusion protein. The note with it: each peptide 10^-5 M, 10 ug/ml. As for the experimental part:
Complexes were isolated by centrifugation, then bound rIL-16 was released by boiling in SDS-PAGE buffer, resolved by SDS-PAGE, and detected by autoradiography. Specificity of the interaction between rIL-16 and D3D4 was assessed by competition with an excess of unlabeled rIL-16. ^35S-labeled rIL-16 incubated with GST (lane 1); ^35S-labeled rIL-16 incubated with GST-D3D4 (lane 2); ^35S-labeled rIL-16 plus excess unlabelled rIL-16 incubated with GST-D3D4 (lane 3); ^35S-labeled rIL-16 plus10 ug/ml peptide A (lane 4); ^35S-labeled rIL-16 plus 10 ug/ml peptide B (lane 5); ^35S-labeled rIL-16 plus 10 ug/ml peptide C (lane 6); ); ^35S-labeled rIL-16 plus 10 ug/ml peptide A and peptide B (lane 7). The arrow indicates the position of IL-16 on the gel. The identity of this band was re-confirmed by immunoblotting with anti-IL-16 antibody.
Radiolabeled murine IL-16 was prepared by in vitro translation and transcription (TNT T7, Promega) of a murine IL-16 cDNA construct in pET-16b expressing the C-terminal 119 amino acids of IL-16. Each coupled transcription-translation reaction was conducted in medium supplemented with [^35S]methionine according to the manufacturer's instructions.
A glutathione-S-transferase (GST)-murine D3D4 fusion protein was produced by subcloning the murine D3D4 domain cDNA sequences encoding the CD4 protein open reading frame from Phe^182 to Phe^372 into pGEX-5X.1 (Pharmacia). The GST-D3D4 fusion protein was purified according to the Pharmacia GST-fusion protein purification protocol using glutathione-conjugated Sepharose 4B beads in the presence of 2 mM dTT. […]
To investigate IL-16 interaction with the D3D4 of CD4, the GST-D3D4 fusion protein, or GST alone, was bound to the glutathione-conjugated Sepharose 4B beads. […] The GST-D3D4 or GST proteins were released from the beads by boiling in SDS gel loading buffer, and the supernatant was analyzed by 12% SDS-polyacrylamide gel electrophoresis (SDS-PAGE). The presence of ^35S-labeled mrIL16 was detected by autoradiography of the dried gel. […]

The next assay deals with T4, murine rIL-16 (Mus musculus, UniProt O54824).
T4 construct: polyhistidine fusion protein containing the 119 C-terminal residues encoded by the previously reported murine cDNA; polyhistidine (cleaved yes); made in house; host or cells: Escherichia coli strain HMS 174, vector pET16b
T4 sequence (O54824 1204-1322): T1 sequence (O54824 1204-1322)
The assay is described as follows: murine rIL-16-stimulated murine splenocyte migration, modified Boyden chamber. The note with it: rIL-16 10^-9 M; for inhibition of rIL-16-induced splenocyte migration: peptide 10^-6 M; for IL-16-inhibitory activity (block of murine rIL-16-stimulated murine splenocyte migration): peptide concentration not given. Format: cell-based. As for the experimental part: Cell migration was assessed using a modified Boyden chamber. […] Cell migration is expressed as the mean % control migration.
Results from multiple experiments were analyzed using Student's t test for paired variables, and Tukey's test for multiple variables. A P value<0.05 was considered significant.
Peptide B (aa 341-352) includes the sequence WQCLLS (residues 344-349, SEQ ID NO:4) which is 100% conserved in all the species examined. Peptide A (aa 327-338) and peptide C (aa 351-362) correspond to the N-terminal and C-terminal flanks of peptide B, respectively. A random scrambled 12-residue peptide (LSKQKMVSREGT) designated peptide D (SEQ ID NO:20) was used a negative control for nonspecific effects of peptide administration on splenocyte motility. Criteria for the design of peptide D included overall hydrophilicity, neutral charge and no cysteine residues (to prevent possible dimer formation).
Murine spleens were harvested from healthy 8-week male BALB/c mice (Jackson Laboratory). Splenocytes were isolated by grinding spleens between fiysted slides in M199 culture medium (M. A. Bioproducts), supplemented with 0.4% bovine serum albumin, 22 mM HEPES buffer, 100 with U/ml of penicillin, 100 μg/ml streptomycin (M199-HPS). Cells were washed and erytbrocytes were lysed in Gey's solution. Splenocytes were washed twice in M199, and resuspended to a final concentration of 2×10^6 cells/ml in RPMI1640 medium (BioWhittaker) supplemented with 10% FBS, 100 U/ml of penicillin and 100 μg/ml of streptomycin. By flow cytometry, 25% of the isolated splenocytes within the lymphocyte-cloud were CD4^+.
Recombinant murine IL-16 was produced in Escherichia coli (strain HMS 174; Novagen) as a polyhistidine fusion protein containing the 119 C-terminal residues encoded by the previously reported murine cDNA (Keane et al., (1998) J. Immunol. 160: 5945-5954), using the bacterial expression vector pET16b (Novagen). The recombinant product corresponds to the secreted form of natural murine IL-16 following cleavage by caspase-3 (Zhang et al. (1998) J. Biol. Chem. 273:1144-1149). The rIL-16 was purified by metal chelation chromatography, and the polyhistidine tag was cleaved with factor Xa (New England Biolabs).

Setting [2] is: first line of the peptide's pair.
Where [3] appears, read: second line of the peptide's pair.

For the substance “CLLS (OTHER INFORMATION: Description of Artificial Sequence:IL-16 antagonist peptide)”, the “IL-16-induced migration of human T-cells blocked” value with IL-16 is “approximately 90%”. For the same substance, the “effect on anti-CD4 antibody OKT4-induced migration” value in the assay with anti-CD4 antibody (OKT4) was “unaffected”. In the assay with HIV-1 gp120, the “effect on HIV-1 gp120-induced migration” value was “unaffected”.

With “GDKVKMDSRIQV [peptide C, 12-residue peptide, aa 351-362 of mouse CD4 D4]”, the “% IL-2R+ CELLS” value with rIL-16 (setting [2]) is 20%. In addition, the “% IL-2R+ CELLS” value with rIL-16 (setting [3]) is given as 35%. The “inhibition of IL-16-stimulated induction of IL-2R” value (from here on “inhibition … of IL-2R”) with rIL-16 (peptide 10^-7 M) is reported as “inhibitory”. The “IL-16 binding to GST-D3D4 in the presence of peptide” value (from here on “IL-16 binding to GST-D3D4”) in assay [1] is reported as “failed to reduce IL-16 binding”. For the same substance, in the assay with murine rIL-16, the “inhibition of rIL-16-induced splenocyte migration” value was “inhibit” and the “IL-16-inhibitory activity (block of murine rIL-16-stimulated murine splenocyte migration)” value is listed as “IL-16-inhibitory activity”.

In the case of “TGLWQCLLSEGD (OTHER INFORMATION: Description of Artificial Sequence:IL-16 antagonist peptide) [peptide B, 12-residue peptide, aa 341-352 of mouse CD4 D4]”, the “% IL-2R+ CELLS” value in the assay with rIL-16 (setting [2]) turned out to be 22%; in the assay with rIL-16 (setting [3]), 26%. The “inhibition … of IL-2R” value with rIL-16 (peptide 10^-6 M) and in the assay with rIL-16 (peptide 10^-7 M) was “completely inhibited” throughout. In addition, in assay [1], the “IL-16 binding to GST-D3D4” value is on record as “reduced to background”. The “IL-16-inhibitory activity (block of murine rIL-16-stimulated murine splenocyte migration)” value in the assay with murine rIL-16 is on record as “IL-16-inhibitory activity”.

As to “VSEEQKVVQVVA (OTHER INFORMATION: Description of Artificial Sequence:IL-16 antagonist peptide) [peptide A, 12-residue peptide, aa 327-338 of mouse CD4 D4]”, the “% IL-2R+ CELLS” value in the assay with rIL-16 (setting [2]) came out at 21%. In the assay with rIL-16 (setting [3]), the “% IL-2R+ CELLS” value stood at 37%. Further, the “inhibition … of IL-2R” value with rIL-16 (peptide 10^-7 M) is reported as “inhibitory”. In addition, the “IL-16 binding to GST-D3D4” value in assay [1] is “reduced to background”. Also, in the assay with murine rIL-16, the “inhibition of rIL-16-induced splenocyte migration” value is on record as “inhibited” and the “IL-16-inhibitory activity (block of murine rIL-16-stimulated murine splenocyte migration)” value is given as “IL-16-inhibitory activity”.
